In the RNAGym collection of RNA variant scans (doi:10.7554/elife.80360) one finds self-cleavage data, which are given here for 39 variants.

To fix the notation:
B1: CPEB3 Ribozyme (parent)
chain: GGGGGCCACAGCAGAAGCGUUCACGUCGCGGCCCCUGUCAGAUUCUGGUGAAUCUGCGAAUUCUGCUGU

In this data set the parent is B1. The data set can be described thus: self-cleavage, relative activity (ratio to wild type); higher = more cleavage; co-transcriptional.
As to GGGGGCCACAGCAGAAGCGUUCCCGUCGCGGCCCCUGUCAGAUUCUGGUGAAUCUGCGAAUUCUGCAGU [A23C U67A], the self-cleavage was 0.988.

Turning to GGGGGCCACAGCAGAAGCGUUCCCGUCGCGGCCCCUGUCAGAUUCUGGUGAAUCUGCGAAUUCUGCCGU [A23C U67C], the self-cleavage was 0.97. With GGGGGCCACAGCAGAAGCGUUCCCGUCGCGGCCCCUGUCAGAUUCUGGUGAACCUGCGAAUUCUGCUGU [A23C U53C] the figure was 0.915.

On to GGGGGCCACAGCAGAAGCGUUCCCGUCGCGGCCCCUGUCAGAUUCUGGUGAAGCUGCGAAUUCUGCUGU [A23C U53G], for which the self-cleavage is 0.81. Then GGGGGCCACAGCAGAAGCGUUCCCGUCGCGGCCCCUGUCAGAUUCUGGUGAAUCUGCGAAUCCUGCUGU [A23C U62C], with 0.818; and GGGGGCCACAGCAGAAGCGUUCCCGUCGCGGCCCCUGUCAGAUUCUGGUGAAUCUGCGAAUGCUGCUGU [A23C U62G], with 0.853; and GGGGGCCACAGCAGAAGCGUUCCCGUCGCGGCCCCUGGCAGAUUCUGGUGAAUCUGCGAAUUCUGCUGU [A23C U38G], with 0.216. As to GGGGGCCACAGCAGAAGCGUUCCCGUCGCGGCCCCUGUCAGAUUCUGGAGAAUCUGCGAAUUCUGCUGU [A23C U49A], the self-cleavage stood at 0.951. With GGGGGCCACAGCAGAAGCGUUCCCGUCGCGGCCCCUGUCAGAUUCUGGCGAAUCUGCGAAUUCUGCUGU [A23C U49C] the figure was 0.927. Then GGGGGCCACAGCAGAAGCGUUCCCGUCGCGGCCCCUGUCAGAUUCAGGUGAAUCUGCGAAUUCUGCUGU [A23C U46A], with 0.923; and GGGGGCCACAGCAGAAGCGUUCGCGUCGCGGCCCCUGUCAGAUUCUGGUGAUUCUGCGAAUUCUGCUGU [A23G A52U], with 0.933. In the case of GGGGGCCACAGCAGAAGCGUUCGCGUCGCGGCCCCUGUCAGAUUCUGGUGAGUCUGCGAAUUCUGCUGU [A23G A52G], the self-cleavage came to 1.02. Then GGGGGCCACAGCAGAAGCGUUCGCGUCGCGGCCCCUGUCAGAUUCUGGUGACUCUGCGAAUUCUGCUGU [A23G A52C], with 0.935; and GGGGGCCACAGCAGAAGCGUUCCCGUCGCGGCCCCUGUCAGAUUCUGGUUAAUCUGCGAAUUCUGCUGU [A23C G50U], with 0.953. Turning to GGGGGCCACAGCAGAAGCGUUCCCGUCGCGGCCCCUGUCAGAUUCUGGUCAAUCUGCGAAUUCUGCUGU [A23C G50C], the self-cleavage was 0.981. Then GGGGGCCACAGCAGAAGCGUUCCCGUCGCGGCCCCUGUCAGAUUCUGGUGAAUCUGCGAAUUCCGCUGU [A23C U64C], with 0.912. With GGGGGCCACAGCAGAAGCGUUCCCGUCGCGGCCCCUGUCAGAUUCUGGUGAAUCUGCGAAUUCGGCUGU [A23C U64G] the figure was 0.878; with GGGGGCCACAGCAGAAGCGUUCGCGUCGCGGCCCCUGUCCGAUUCUGGUGAAUCUGCGAAUUCUGCUGU [A23G A40C], 0.328. In the case of GGGGGCCACAGCAGAAGCGUUCGCGUCGCGGCCCCUGUCGGAUUCUGGUGAAUCUGCGAAUUCUGCUGU [A23G A40G], the self-cleavage amounted to 0.992. Turning to GGGGGCCACAGCAGAAGCGUUCCCGGCGCGGCCCCUGUCAGAUUCUGGUGAAUCUGCGAAUUCUGCUGU [A23C U26G], the self-cleavage amounted to 0.749. Then GGGGGCCACAGCAGAAGCGUUCGCGUCGCGGCCCCUGUCAGAUUCUGGUGUAUCUGCGAAUUCUGCUGU [A23G A51U], with 1; and GGGGGCCACAGCAGAAGCGUUCCCGUCGCGGCCCCUGUCAGAUUCUGGUGAAUCUGCCAAUUCUGCUGU [A23C G58C], with 0.891; and GGGGGCCACAGCAGAAGCGUUCCCGUCGCGGCCCCUGUCAGAUUCUGGUGAAUCUGCGAAAUCUGCUGU [A23C U61A], with 0.832. With GGGGGCCACAGCAGAAGCGUUCCCGUCGCGGCCCCUGUCAGAUUCUGGUGAAUCUGCGAAGUCUGCUGU [A23C U61G] the figure was 0.855; with GGGGGCCACAGCAGAAGCGUUCCCGUCGCGGCCCCCGUCAGAUUCUGGUGAAUCUGCGAAUUCUGCUGU [A23C U36C], 0.679.

Consider GGGGGCCACAGCAGAAGCGUUCCCGUCGCGGCCCCUGUCAGAUUCUGGUGAAUCUCCGAAUUCUGCUGU [A23C G56C], for which the self-cleavage worked out at 0.762. In the case of GGGGGCCACAGCAGAAGCGUUCCCGUCGCGGCCCCUGUCAGAUUCUGGUGAAUCUACGAAUUCUGCUGU [A23C G56A], the self-cleavage was 0.852. Then GGGGGCCACAGCAGAAGCGUUCCCGUCGCGGCCCCUGUCAGAUUCUGGUGAAUCUGCGAAUUCUCCUGU [A23C G65C], with 0.535; and GGGGGCCACAGCAGAAGCGUUCCCGUCGCGGCCCCUGUCAGAUUCUGGUGAAUCUGCGAAUUCUUCUGU [A23C G65U], with 0.674; and GGGGGCCACAGCAGAAGCGUUCCCGUCGCGGCCCCUGUCAGAUUCUGGUGAAUCUGCGAAUUCUACUGU [A23C G65A], with 0.764. Then GGGGGCCACAGCAGAAGCGUUCGCGUCGCGGCCCCUGUCAGAUUCUGGUGAAUCUGCGAAUUCUGCUGU [A23G], with 0.984; and GGGGGCCACAGCAGAAGCGUUCCCGUCGCGGCCCCUGUCAGAAUCUGGUGAAUCUGCGAAUUCUGCUGU [A23C U43A], with 0.771.

On to GGGGGCCACAGCAGAAGCGUUCCCGUCGCGGCCCCUGUCAGAGUCUGGUGAAUCUGCGAAUUCUGCUGU [A23C U43G], for which the self-cleavage was found to be 0.82.

As for GGGGGCCACAGCAGAAGCGUUCCCGUCGCGGCCCCUGUCAGAUCCUGGUGAAUCUGCGAAUUCUGCUGU [A23C U44C], the self-cleavage was determined as 0.874. As to GGGGGCCACAGCAGAAGCGUUCCCGUCGCGGCCCCUGUCAGAUUCUGGUGAAUCUGCGAAUUCUGCUGA [A23C U69A], the self-cleavage came to 0.959. With GGGGGCCACAGCAGAAGCGUUCCCGUCGCGGCCCCUGUCAGAUUCUGGUGAAUCUGCGAAUUCUGCUGC [A23C U69C] the figure was 1.04; with GGGGGCCACAGCAGAAGCGUUCCCGUCGCGGCCCCUGUCAGAUUCUGGUGAAUCUGCGAAUUCUGCUUU [A23C G68U], 0.995; with GGGGGCCACAGCAGAAGCGUUCCCGUCGCGGCCCCUGUCAGAUUCUGGUGAAUCUGCGAAUUCUGCUCU [A23C G68C], 0.977. With GGGGGCCACAGCAGAAGCGUUCCCGUCGCGGCCCCUGUCAGAUUCUGGUGAAUCCGCGAAUUCUGCUGU [A23C U55C], the self-cleavage came to 0.891.
